According to US8399206B2, “Methods for diagnosis, prognosis and methods of treatment” (Nodality, Inc., priority 2008, dated 2013):

B1: FLT-3L: fms-like tyrosine kinase receptor-3 ligand (protein, UniProt P49771 27-235, looked up)
Fms-related tyrosine kinase 3 …: TQDCSFQHSPISSDFAVKIRELSDYLLQDYPVTVASNLQDEELCGGLWRLVLAQRWMERLKTVAGSKMQGLLERVNTEIHFVTKCAFQPPPSCLRFVQTNISRLLQETSEQLVALKPWITRQNFSRCLELQCQPDSSTLPPPWSPRPLEATAPTAPQPPLLLLLLLPVGLLLLAAAWCLHWQRTRRRTPRPGEQVPPVPSPQDLLLVEH
B2: IL-27: interleukin-27 (protein, UniProt Q8NEV9 29-243; Q14213 21-229, looked up)
Interleukin-27 subunit alpha: FPRPPGRPQLSLQELRREFTVSLHLARKLLSEVRGQAHRFAESHLPGVNLYLLPLGEQLPDVSLTFQAWRRLSDPERLCFISTTLQPFHALLGGLGTQGRWTNMERMQLWAMRLDLRDLQRHLRFQVLAAGFNLPEEEEEEEEEEEEERKGLLPGALGSALQGPAQVSWPQLLSTYRLLHSLELVLSRAVRELLLLSKAGHSVWPLGFPTLSPQP
Interleukin-27 subunit beta: RKGPPAALTLPRVQCRASRYPIAVDCSWTLPPAPNSTSPVSFIATYRLGMAARGHSWPCLQQTPTSTSCTITDVQLFSMAPYVLNVTAVHPWGSSSSFVPFITEHIIKPDPPEGVRLSPLAERQLQVQWEPPGSWPFPEIFSLKYWIRYKRQGAARFHRVGPIEATSFILRAVRPRARYYVQVAAQDLTDYGELSDWSLPATATMSLGK

Legend:
AML BMMC leukemic blasts = assay: SCNP modulated signaling assay, AML study No. 2 (BMMC, CR vs NR, clinical sub-groups); type: cell-based, human
Experimental: Two independent sets of cryopreserved samples were analyzed sequentially. The first set consisted of 35 peripheral blood mononuclear cell (PBMC) samples derived from AML patients. The second set consisted of 134 cryopreserved bone marrow mononuclear cell (BMMC) samples derived from AML patients. These samples were the same samples used in the previous examples. Sample inclusion criteria required collection prior to initiation of induction chemotherapy, AML classification by the French-American-British (FAB) criteria as M0 through M7 (excluding M3) and availability of clinical annotations.
In the first study, induction chemotherapy consisted of at least one cycle of standard cytarabine-based induction therapy (i.e. daunorubicin 60 mg/m^2×3 days, cytarabine 100-200 mg/m^2 continuous infusion×7 days); responses were measured after one cycle of induction therapy. In the second study, cytarabine (200 mg/m^2 to 3 g/m^2) was used in combination with an anthracycline (daunorubicin or idarubicin) or an additional anti-metabolite (e.g. fludarabine or troxacitabine), and sometimes, an experimental agent (Table 16). […] Standard clinical and laboratory criteria were used for defining complete response (CR) in both studies. […] Classified as “CRp,” these samples were included in the CR group for all primary analysis. The univariate analyses were also repeated with the CRp patients classified into the NR sample group for sensitivity analysis.
Cyropreserved samples were thawed at […], washed and centrifuged in PBS, 10% FBS and 2 mM EDTA. The cells were re-suspended, filtered to remove debris and washed in RPMI cell culture media, 1% FBS, then stained with Live/Dead Fixable Aqua Viability Dye to distinguish non-viable cells. The cells were then re-suspended in RPMI, 1% FBS, aliquoted to 100,000 cells/condition and rested for 1-2 hours at 37° C. prior to SCNP assays. Each condition included two to five phenotypic markers for cell population gating (eg, CD45, CD33), up to three intracellular stains or up to three additional surface markers or control antibodies for an eight-color flow cytometry assay.
Functional assays were performed as previously described. Cells were incubated with modulators (Table 18), at 37° C. for 3-15 minutes, fixed with 1.6% paraformaldehyde (final concentration) for 10 minutes at 37° C., pelleted and permeabilized with 100% ice-cold methanol and stored at −80° C.
Data was acquired using FACS DIVA software on both LSR II and CANTO II Flow Cytometers (BD). For all analyses, dead cells and debris were excluded by forward scatter (FSC), side scatter (SSC), and Amine Aqua Viability Dye measurement. Leukemic cells were identified as cells that lacked the characteristics of mature lymphocytes (CD45^++, CD33^−) and that fit the CD45 and CD33 versus right-angle light-scatter characteristics consistent with myeloid leukemia cells.
The median fluorescence intensity (MFI) was computed for each node from the fluorescence intensity levels for the cells in the myeloid population. The MFI values were then used to compute a variety of metrics by comparing them to baseline or background values, including the unmodulated condition, cellular autofluorescence and antibody isotype controls. The following metrics were computed: • 1. Basal MFI (“Basal”)=log2(MFIUnmodulated Stained)−log2(MFIGated Unstained (Autofluoresence)), designed to measure the basal levels of a certain protein under unmodulated conditions. • 2.

[1] = system: FLT3-WT and FLT3-ITD AML leukemic blasts; assay: SCNP signaling and apoptosis in FLT3-WT versus FLT3-ITD AML samples (Example 9); type: cell-based, human
Description: This example identifies intracellular signaling pathways associated with FLT3 ITD in two independent cohorts of diagnostic AML samples that serve as an improvement over current clinical tools in the identification of clinically meaningful altered FLT 3 and has implications for cohort selection in the development of FLT3 inhibitors. The two cohorts of data were further analyzed to investigate the differences in signaling between FLT-WT and FLT-ITD samples. The first cohort of data (“study 1”) comprised the 34 samples from University Health Network outlined in Table 16 and Table 19. The second cohort of data (“study 2”) comprised an 83 sample subset of MD Anderson Cancer Center data outlined in Table 16 (and Table 19). The 83 sample subset was selected based on known FLT3 mutation status. Both cohorts of data were used to investigate differences in FLT3 signaling between leukemic blasts and control data.
In order to further characterize wild-type FLT receptor signaling in AML, we compared FLT3L-induced signaling in the myeloblast population of control BMMC samples with FLT3L-induced signaling in the leukemic blast population of FLT3-WT AML samples.
Univariate analysis, unadjusted for multiple testing, was performed sequentially and independently on the two study cohorts in order to identify signaling nodes that distinguished with FLT3-ITD from FLT3-WT AML patient samples. […] Results from both studies include the AUC, Wilcoxon and t-test p-value for each node, and the number/mean value of the samples in the FLT3-ITD and FLT3-WT AML groups with common stratifying nodes summarized in FIG. 23. Although the majority of the discussion herein is directed to nodes that had similar reponses within the two cohorts of data, some differences were observed between the two cohorts of data. These differences may have been due to the different clinical characteristics of the two cohorts of data, specifically biases in the data from UHN.

[2] = Study No. 2, all patients, CR samples
[3] = Study No. 2, all patients, NR samples

| Molecule | Flt3L induced p-Akt and p-Erk (AML BMMC leukemic blasts; patients over age 60 or with secondary AML lacking response to induction chemotherapy) | H2O2 and FLT3L responses, NR vs CR (AML BMMC leukemic blasts; patients younger than 60 years old (so in the source)) | FLT3L-induced PI3K and MAPK pathway activation ([1]; FLT3-ITD samples compared to FLT3-WT samples) | FLT3L-induced signaling at 15 minutes ([1]; FLT3-WT AML samples) | range of FLT3L-induced S6 signaling ([1]; FLT3-WT AML samples) | FLT3L-induced p-Akt and p-S6 ([1]; FLT3-WT AML samples, early time points (4 minutes, 10 minutes)) | Mean Value of CRs, p-Stat1 Total Phospho (AML BMMC leukemic blasts; [2]) | Mean Value of CRs, p-Stat3 Total Phospho (AML BMMC leukemic blasts; [2]) | Mean Value of CRs, p-Stat3 Fold (AML BMMC leukemic blasts; Study No. 2, all patients, CR samples, negative = down regulation) | Mean Value of NRs, p-Stat1 Total Phospho (AML BMMC leukemic blasts; [3]) | Mean Value of NRs, p-Stat3 Fold (AML BMMC leukemic blasts; [3]) | Mean Value of NRs, p-Stat3 Total Phospho (AML BMMC leukemic blasts; [3]) | IL-27 response, NR vs CR (AML BMMC leukemic blasts; patients younger than 60 years old) | responsiveness to IL-27 stimulation ([1]; FLT3-ITD samples) | IL-27-induced p-Stat responses ([1]; FLT3-WT samples) |
| --- | --- | --- | --- | --- | --- | --- | --- | --- | --- | --- | --- | --- | --- | --- | --- |
| B1 | increased Flt3L induced p-Akt and p-Erk | NRs have higher H2O2 and FLT3L responses than CRs | lower levels of induced and total PI3K and MAPK pathway activation | sustained p-Erk, p-CREB and p-Akt activation | wide range of S6 signaling | increased levels of p-Akt and p-S6 | – | – | – | – | – | – | – | – | – |
| B2 | – | – | – | – | – | – | 1.66 | 1.88 | 0.22 | 2.63 | 0.58 | 2.43 | NRs have higher IL-27 response than CRs | minimal responsiveness | wide range of p-Stat responses |
